Publication PMC6277958, “Crystal structure of the Agrobacterium tumefaciens type VI effector–immunity complex” (Acta Crystallographica. Section F, Structural Biology …, 2018)

Target: the molecule itself
Test: SEC; AtTai4 alone in solution; conditions not told (purification used a HiLoad Superdex 75 column)

B1: T6SS amidase immunity protein 4 (Tai4) from Agrobacterium tumefaciens, residues 26–129, expressed alone from pCold-GST (natural protein, UniProt A9CGG9 26-129, looked up)
chain: AERTWIFSGAELKQAIEGKLAPDVSDPEMRRLVSVAKSSAYIAGVADLTSGSDWCGAGAVAPHELTDRIYTYLGDMPAEKLDEQAATLVREALKVSFPCEQKSN
notes: codon-optimized synthetic gene; His6-GST tag removed with Turbo3C protease; Disulfide bond between Cys80 and Cys124 in each protomer; also called AtTai4; ATU4346; source: E. coli Rosetta 2 (DE3), purified (Ni-NTA, Resource Q, HiLoad Superdex 75); not shown: His6, N-terminal, cleaved; GST, N-terminal, cleaved
  stoichiometry N: 2
